Measured values as given in patent US20240287138A1, “CYCLIC PEPTIDES FOR INHIBITING TNF RECEPTOR 1 ACTIVITY” (Merck Sharp & Dohme LLC, priority 2023, published 2024).
Numbered stars: 1 amine (or outer) side, 2 acyl side, 3 side chain; on linkers, the order of the positions; unused ones are H or OH. Bridge positions count the residues as written; N and C are the ends. Square brackets hold non-standard residues; d marks the D form. Primed or numbered codes have the meaning given here. bhcLeu = (1R,3S)-3-aminocyclopentane-1-carboxylic acid, O=C([C@@H]1CC[C@H](N[*:1])C1)[*:2]; FX1 = N5-(Pyridin-3-yl)-L-glutamine, O=C(CC[C@H](N[*:1])C(=O)[*:2])Nc1cccnc1; Ala(2-carboxypyrimidin-5-yl) = N[C@@H](Cc1cnc(C(=O)O)nc1)C(=O)O; Trp(βS-Me,7-OMe) = COc1cccc2c([C@H](C)[C@H](N)C(=O)O)c[nH]c12; NEtdA = N-ethyl-D-alanine, CCN([C@H](C)C(=O)[*:2])[*:1]; Trp(βS-Me) = C[C@@H](c1c[nH]c2ccccc12)[C@H](N)C(=O)O; Trp(7-Cl) = N[C@@H](Cc1c[nH]c2c(Cl)cccc12)C(=O)O; Phe(4-CONH2) = NC(=O)c1ccc(C[C@H](N)C(=O)O)cc1; Phe(4-COOH) = N[C@@H](Cc1ccc(C(=O)O)cc1)C(=O)O; Trp(7-aza) = N[C@@H](Cc1c[nH]c2ncccc12)C(=O)O; Phe(4-CH2NH2) = NCc1ccc(C[C@H](N)C(=O)O)cc1; Pip(5R-OH) = O=C(O)[C@@H]1CC[C@@H](O)CN1; αMeW = C[C@](N)(Cc1c[nH]c2ccccc12)C(=O)O; Ala(2-furyl) = N[C@@H](Cc1ccco1)C(=O)O; 2Nal = N[C@@H](Cc1ccc2ccccc2c1)C(=O)O; Val(3-OH) = CC(C)(O)[C@H](N)C(=O)O; Pip(4-aza) = O=C(O)[C@@H]1CNCCN1; 3Pal = N[C@@H](Cc1cccnc1)C(=O)O; 4Pal = N[C@@H](Cc1ccncc1)C(=O)O; NMeE = CN[C@@H](CCC(=O)O)C(=O)O; dHyp = O=C(O)[C@H]1C[C@H](O)CN1; NMeS = CN[C@@H](CO)C(=O)O; αMeS = C[C@](N)(CO)C(=O)O; Nle = CCCC[C@H](N)C(=O)O; Pip2c = not defined here; Ahp′ = not defined here; Dap = NC[C@H](N)C(=O)O; Sar = CNCC(=O)O

Target: C'-terminally 6His-tagged human soluble TNFR1 (sTNFR1, residues 1-211) (human)
Experiment: TR-FRET displacement of biotinylated peptide SEQ ID NO. 1 from sTNFR1-6His

C'-terminally 6His-tagged human soluble TNFR1 (sTNFR1, residues 1-211) (human), sequence (chain, as listed by the source): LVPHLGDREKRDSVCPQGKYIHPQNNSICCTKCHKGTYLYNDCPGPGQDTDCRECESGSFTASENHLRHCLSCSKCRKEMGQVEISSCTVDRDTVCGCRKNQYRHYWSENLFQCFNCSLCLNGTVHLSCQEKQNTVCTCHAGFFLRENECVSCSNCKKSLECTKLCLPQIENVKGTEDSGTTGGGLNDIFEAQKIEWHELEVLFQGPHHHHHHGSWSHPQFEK

Binder	IC50 [nM]	Kd^app [nM]
{CH2CO}-[Nle][4Pal][Pip2c][Trp(7-aza)][NMeE]N[4Pal][Trp(7-Cl)][αMeS][Phe(4-COOH)][TyrOCF3][Sar][Trp(βS-Me,7-OMe)]C-NH2 (thioether N-14; reading uncertain; also: printed as cyclo(ClAc-Nle-4Pal-Pip2c-Trp7az-NMeE-N-4Pal-Trp7Cl-aMeS-Phe4COOH-TyrOCF3-Sar-SbMeW7OMe-C)-NH2) [SEQ ID NO. 158]	1.79	
cyclo([bhcLeu][FX1][4Pal][NMeS]W[NMeE]N[4Pal][Trp(7-Cl)][αMeS][Phe(4-COOH)]Y[Sar][Trp(βS-Me,7-OMe)]) (SMILES COc1cccc2c([C@H](C)[C@@H]3NC(=O)CN(C)C(=O)[C@H](Cc4ccc(O)cc4)NC(=O)[C@H](Cc4ccc(C(=O)O)cc4)NC(=O)[C@](C)(CO)NC(=O)[C@H](Cc4c[nH]c5c(Cl)cccc45)NC(=O)[C@H](Cc4ccncc4)NC(=O)[C@H](CC(N)=O)NC(=O)[C@H](CCC(=O)O)N(C)C(=O)[C@H](Cc4c[nH]c5ccccc45)NC(=O)[C@H](CO)N(C)C(=O)[C@H](Cc4ccncc4)NC(=O)[C@H](CCC(=O)Nc4cccnc4)NC(=O)[C@@H]4CC[C@@H](C4)NC3=O)c[nH]c12) [SEQ ID NO. 166]	0.5	0.44
cyclo([bhcLeu][Nle][4Pal][Pip(4-aza)]W[NMeE]N[4Pal][Trp(7-Cl)][αMeS][Phe(4-COOH)]H[Sar][Trp(βS-Me,7-OMe)]) (SMILES CCCC[C@@H]1NC(=O)[C@@H]2CC[C@@H](C2)NC(=O)[C@H]([C@@H](C)c2c[nH]c3c(OC)cccc23)NC(=O)CN(C)C(=O)[C@H](Cc2c[nH]cn2)NC(=O)[C@H](Cc2ccc(C(=O)O)cc2)NC(=O)[C@](C)(CO)NC(=O)[C@H](Cc2c[nH]c3c(Cl)cccc23)NC(=O)[C@H](Cc2ccncc2)NC(=O)[C@H](CC(N)=O)NC(=O)[C@H](CCC(=O)O)N(C)C(=O)[C@H](Cc2c[nH]c3ccccc23)NC(=O)[C@@H]2CNCCN2C(=O)[C@H](Cc2ccncc2)NC1=O) [SEQ ID NO. 178]		0.29
{CH2CO}-[Nle][4Pal][Pip(5R-OH)]W[NEtdA]N[4Pal][Trp(7-Cl)][αMeS][Phe(4-CONH2)]Y[Sar][Trp(βS-Me,7-OMe)]C-NH2 (thioether N-14; SMILES CCCC[C@@H]1NC(=O)CSC[C@@H](C(N)=O)NC(=O)[C@H]([C@@H](C)c2c[nH]c3c(OC)cccc23)NC(=O)CN(C)C(=O)[C@H](Cc2ccc(O)cc2)NC(=O)[C@H](Cc2ccc(C(N)=O)cc2)NC(=O)[C@](C)(CO)NC(=O)[C@H](Cc2c[nH]c3c(Cl)cccc23)NC(=O)[C@H](Cc2ccncc2)NC(=O)[C@H](CC(N)=O)NC(=O)[C@@H](C)N(CC)C(=O)[C@H](Cc2c[nH]c3ccccc23)NC(=O)[C@@H]2CC[C@@H](O)CN2C(=O)[C@H](Cc2ccncc2)NC1=O) [SEQ ID NO. 186]	0.5	0.42
cyclo([bhcLeu][Nle][4Pal][Pip(5R-OH)]W[dHyp]N[Phe(4-COOH)][Trp(7-Cl)][αMeS][Phe(4-CONH2)][Ala(2-carboxypyrimidin-5-yl)][Sar][Trp(βS-Me,7-OMe)]) (SMILES CCCC[C@@H]1NC(=O)[C@@H]2CC[C@@H](C2)NC(=O)[C@H]([C@@H](C)c2c[nH]c3c(OC)cccc23)NC(=O)CN(C)C(=O)[C@H](Cc2cnc(C(=O)O)nc2)NC(=O)[C@H](Cc2ccc(C(N)=O)cc2)NC(=O)[C@](C)(CO)NC(=O)[C@H](Cc2c[nH]c3c(Cl)cccc23)NC(=O)[C@H](Cc2ccc(C(=O)O)cc2)NC(=O)[C@H](CC(N)=O)NC(=O)[C@H]2C[C@H](O)CN2C(=O)[C@H](Cc2c[nH]c3ccccc23)NC(=O)[C@@H]2CC[C@@H](O)CN2C(=O)[C@H](Cc2ccncc2)NC1=O) [SEQ ID NO. 191]		0.18
{CH2CO}-[Nle]H[Val(3-OH)][Trp(7-aza)][NMeE]N[4Pal][Trp(7-Cl)][αMeS][Phe(4-COOH)]Y[Sar][Trp(βS-Me,7-OMe)]C-NH2 (thioether N-14; SMILES CCCC[C@@H]1NC(=O)CSC[C@@H](C(N)=O)NC(=O)[C@H]([C@@H](C)c2c[nH]c3c(OC)cccc23)NC(=O)CN(C)C(=O)[C@H](Cc2ccc(O)cc2)NC(=O)[C@H](Cc2ccc(C(=O)O)cc2)NC(=O)[C@](C)(CO)NC(=O)[C@H](Cc2c[nH]c3c(Cl)cccc23)NC(=O)[C@H](Cc2ccncc2)NC(=O)[C@H](CC(N)=O)NC(=O)[C@H](CCC(=O)O)N(C)C(=O)[C@H](Cc2c[nH]c3ncccc23)NC(=O)[C@H](C(C)(C)O)NC(=O)[C@H](Cc2c[nH]cn2)NC1=O) [SEQ ID NO. 217]	1	0.73
{CH2CO}-[Ahp′]Y[AlaPiperaz][Trp(βS-Me)][dP]N[4Pal][Trp(7-Cl)][αMeS][Phe(4-COOH)][3Pal][Sar][αMeW]C-NH2 (thioether N-14; reading uncertain; also: printed as cyclo(ClAc-Ahp-Y-AlaPiperaz-SbMeW-dP-N-4Pal-Trp7Cl-aMeS-Phe4COOH-3Pal-Sar-aMeW-C)-NH2) [SEQ ID NO. 226]	1.16	
{CH2CO}-[Nle][4Pal][Pip(4-aza)]W[dP]N[Ala(2-furyl)][Trp(7-Cl)][αMeS][Phe(4-COOH)]Y[Sar][Trp(βS-Me,7-OMe)]C-NH2 (thioether N-14; SMILES CCCC[C@@H]1NC(=O)CSC[C@@H](C(N)=O)NC(=O)[C@H]([C@@H](C)c2c[nH]c3c(OC)cccc23)NC(=O)CN(C)C(=O)[C@H](Cc2ccc(O)cc2)NC(=O)[C@H](Cc2ccc(C(=O)O)cc2)NC(=O)[C@](C)(CO)NC(=O)[C@H](Cc2c[nH]c3c(Cl)cccc23)NC(=O)[C@H](Cc2ccco2)NC(=O)[C@H](CC(N)=O)NC(=O)[C@H]2CCCN2C(=O)[C@H](Cc2c[nH]c3ccccc23)NC(=O)[C@@H]2CNCCN2C(=O)[C@H](Cc2ccncc2)NC1=O) [SEQ ID NO. 236]	0.9	
{CH2CO}-[Ahp′][4Pal]S[Trp(βS-Me)][dP]N[Phe(4-COOH)][2Nal][αMeS][Phe(4-COOH)]H[Sar][αMeW]C-NH2 (thioether N-14; reading uncertain; also: printed as cyclo(ClAc-Ahp-4Pal-S-SbMeW-dP-N-Phe4COOH-2Nal-aMeS-Phe4COOH-H-Sar-aMeW-C)-NH2) [SEQ ID NO. 237]	13	
{CH2CO}-[LysN3][4Pal][Dap][Trp(βS-Me)][dP]N[4Pal][Trp(7-Cl)][αMeS][Phe(4-COOH)][Phe(4-CH2NH2)][Sar][αMeW]C-NH2 (thioether N-14) [SEQ ID NO. 245]	0.95	
